By pKd is commonly meant the Kd on a negative log10 scale, so that one unit is a factor of ten. Lower therefore signals a large Kd.

The source of these data is patent US20260217797A1.

The target in test [1] is SARS-CoV-2 Epsilon (B.1.427/429) spike protein (on reporter virus particles) (SARS-CoV-2) (UniProt P0DTC2). Briefly: cell-based or functional assay.
The target in test [2] is SARS-CoV-2 Beta (B.1.351) spike protein (on reporter virus particles) (SARS-CoV-2) (UniProt P0DTC2). Briefly: cell-based or functional assay.
The target in test [3] is SARS-CoV-2 Gamma (P.1) spike protein (on reporter virus particles) (SARS-CoV-2) (UniProt P0DTC2). Briefly: cell-based or functional assay.
The target of test [4] is SARS-CoV-2 Alpha (B.1.1.7) spike protein (on reporter virus particles) (SARS-CoV-2) (UniProt P0DTC2). Description: cell-based or functional assay.
For test [5], the target named is SARS-CoV-2 B.1.617.1 (Kappa) RBD (SARS-CoV-2) (UniProt P0DTC2). Description: Octet BLI single point, monovalent. For orientation: BLI is a label-free optical method that tracks binding on a fibre tip over time.
Test [6] concerns the target SARS-CoV-2 B.1.617.2 (Delta) RBD (SARS-CoV-2) (UniProt P0DTC2). Briefly: Octet BLI single point, monovalent.
Test [7] has as its target SARS-CoV-2 B.1.351 (Beta) RBD (SARS-CoV-2) (UniProt P0DTC2). Description: Octet BLI single point, monovalent.
For test [8], the target named is SARS-CoV-2 P.1 Spike (Gamma) (SARS-CoV-2) (UniProt P0DTC2). Description: Octet BLI single point, monovalent.

pKd: −log10 of the molar value.

Regarding RGN10933 (antibody), the PsV neutralization IC50 in test [1] came out at 0.0074 µg/mL; in test [2], 0.897 µg/mL; in test [3] it was 3.89 µg/mL; in test [4] it was 0.0064 µg/mL. Moreover, the PsV neutralization IC90 in test [1] is 0.058 µg/mL; in test [2] it was 8.28 µg/mL; in test [3], 16.2 µg/mL; in test [4], 0.081 µg/mL. Also, the pKd was 7.92 in test [5] and 8.57 in test [6].

Regarding RGN10987 (antibody), the pKd is 8.52 in test [5], 7.82 in test [7], 7.90 in test [8] and 8.02 in test [6].
